Test results from patent US20060024661A1, “Modulation of CRF potentiation of NMDA receptor currents via CRF receptor 2” (The Regents of the University of California, priority 2003, published 2006).

What was measured:
[1] = molecular target: CRF receptor 2 (CRF-R2) (mouse) (UniProt Q60748); test: cell-based or functional assay
[2] = molecular target: CRF receptor 1 (CRF-R1) (mouse) (UniProt P35347); test: cell-based or functional assay
Chain of CRF receptor 1 (CRF-R1) (mouse) (P35347 24-415): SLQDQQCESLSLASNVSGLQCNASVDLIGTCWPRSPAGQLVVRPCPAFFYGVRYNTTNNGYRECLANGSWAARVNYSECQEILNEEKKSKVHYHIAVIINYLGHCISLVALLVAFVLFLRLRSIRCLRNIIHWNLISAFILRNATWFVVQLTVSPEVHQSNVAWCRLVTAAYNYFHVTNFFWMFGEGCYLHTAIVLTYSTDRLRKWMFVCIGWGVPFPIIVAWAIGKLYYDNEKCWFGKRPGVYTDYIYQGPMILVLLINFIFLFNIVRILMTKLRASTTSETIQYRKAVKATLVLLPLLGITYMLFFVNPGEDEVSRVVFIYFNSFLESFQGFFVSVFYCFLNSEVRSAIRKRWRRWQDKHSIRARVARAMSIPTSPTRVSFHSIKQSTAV

Chain of CRF receptor 2 (CRF-R2) (mouse) (Q60748 20-411): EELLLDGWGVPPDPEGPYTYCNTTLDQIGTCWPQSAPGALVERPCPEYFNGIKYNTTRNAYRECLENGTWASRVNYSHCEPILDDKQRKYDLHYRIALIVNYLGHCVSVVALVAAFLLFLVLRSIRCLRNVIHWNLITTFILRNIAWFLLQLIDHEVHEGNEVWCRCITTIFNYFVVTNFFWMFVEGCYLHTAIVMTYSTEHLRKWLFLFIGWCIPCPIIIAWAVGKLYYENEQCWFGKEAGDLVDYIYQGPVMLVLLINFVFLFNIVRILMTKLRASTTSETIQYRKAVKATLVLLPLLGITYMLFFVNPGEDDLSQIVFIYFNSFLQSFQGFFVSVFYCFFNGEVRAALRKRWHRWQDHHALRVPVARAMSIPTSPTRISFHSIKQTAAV

Substance	NMDAR EPSCs (% of baseline) 15 mins after CRF onset in the presence of 30 nM Antisauvagine-30 [1]	NMDAR-mediated EPSCs (% of baseline) in VTA dopamine neurons, CRF 100 nM, 25 mins after CRF onset [1]	hippocampal CA1 field potentials (% of baseline), CRF 1 µM plus 3 µM CP-154,526 (selective CRF-R1 antagonist, small molecule) [2]	hippocampal CA1 field potentials (% of baseline), CRF 1 µM, 15 mins after CRF onset [2]
Antisauvagine-30 (peptide)	114%	–	–	–
human/rat corticotrophin-releasing factor (CRF) (from UniProt P06850 154-194) (peptide)	–	128%	82.9%	143%
